The target in series [1] is ϕW39 R11C Ref (bacteriophage ϕW39). The series can be described thus: cross-linking; non-specific cross-linker disuccinimidyl glutarate (DSG) to trap the oligomeric states of Ref (Supplementary Figure S2).
For series [2] the target is unchanged. The series can be described thus: non-reducing SDS-PAGE; Ref dialysed free of DTT; 6.5 μg Ref, 50 mM sodium phosphate pH 7.5, 75 mM sodium chloride, no DTT; non-reducing cracking buffer, 4–15% gradient SDS-PAGE; the dimer is taken as disulfide-linked; 10 mM DTT substantially reduced the dimers of P1 WT Ref and ϕW39 R11C.
Series [3] deals with the molecule itself. The series can be described thus: AUC; preliminary ultracentrifugation, unpublished data; conditions not given.
The target in series [4] is T1, phiW39 deltaN74 Ref (bacteriophage phiW39, R86T;A93T;N107E;A115S).
T1 sequence: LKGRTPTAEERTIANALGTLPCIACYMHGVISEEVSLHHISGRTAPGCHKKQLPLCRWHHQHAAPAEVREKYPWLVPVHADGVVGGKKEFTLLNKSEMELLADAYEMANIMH
The series can be described thus: fluorescence polarization; 25 mM Tris-acetate pH 8.5, 3 mM potassium glutamate, 15 mM magnesium acetate, 5% w/v glycerol, 2 nM DNA, Ref 0.5-10000 nM, 15 min at room temperature, read at 25 C; one-site fit with Hill coefficient. The note with it: protein: recombinant, tags: none (native form).

The target of series [5] is T2, P1 deltaN76 Ref (bacteriophage P1, UniProt P35926 77-186, del1-76).
T2 sequence: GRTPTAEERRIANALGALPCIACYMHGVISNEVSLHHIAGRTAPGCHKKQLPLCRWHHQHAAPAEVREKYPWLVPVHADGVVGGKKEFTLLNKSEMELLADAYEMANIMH
Described as above. The note with it: protein: recombinant, tags: none (native form).

Series [6] deals with T3, phiW39 deltaN59 Ref (bacteriophage phiW39, R86T;A93T;N107E;A115S).
T3 sequence: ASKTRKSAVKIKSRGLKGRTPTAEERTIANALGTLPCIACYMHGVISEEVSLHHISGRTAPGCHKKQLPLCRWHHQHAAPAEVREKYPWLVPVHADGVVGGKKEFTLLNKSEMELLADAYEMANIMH
The series can be described thus: fluorescence polarization; Kd value only in Figure 2C; 25 mM Tris-acetate pH 8.5, 3 mM potassium glutamate, 15 mM magnesium acetate, 5% w/v glycerol, 2 nM DNA, Ref 0.5-10000 nM, 15 min at room temperature, read at 25 C; one-site fit with Hill coefficient. The note with it: protein: recombinant; tags: none (native form); label: 5' 6-FAM; single strand.

The target of series [7] is T4, phiW39 WT Ref (bacteriophage phiW39, I8L;C11R;K13E;V34A;T46S;L47I;R86T;A93T;N107E;A115S).
T4 sequence: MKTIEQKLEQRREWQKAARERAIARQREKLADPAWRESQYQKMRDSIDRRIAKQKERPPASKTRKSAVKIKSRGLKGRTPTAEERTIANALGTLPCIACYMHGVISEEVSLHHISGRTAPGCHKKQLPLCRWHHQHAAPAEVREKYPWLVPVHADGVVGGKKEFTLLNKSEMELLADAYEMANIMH
The series can be described thus: fluorescence polarization; apparent Kd; 25 mM Tris-acetate pH 8.5, 3 mM potassium glutamate, 15 mM magnesium acetate, 5% w/v glycerol, 2 nM DNA, Ref 0.5-10000 nM, 15 min at room temperature, read at 25 C; one-site fit with Hill coefficient. The note with it: protein: recombinant, tags: none (native form).

[8] abbreviates: label: 5' 6-FAM on strand 1, blunt.

Substitutions are numbered along the chain they refer to.

In the case of ϕW39 R11C Ref (enzyme), the stoichiometry N in series [1] and in series [2] was 2 throughout.

B1: bacteriophage P1 Ref (recombination enhancement function) protein, wild type (enzyme, UniProt P35926 1-186, looked up)
chain: T4 sequence with L8I, R11C, E13K, A34V, S46T, I47L, T86R, T93A, E107N, S115A
notes: has Cys11; Purified in native form (no tag)
Consider B1, for which the “stoichiometry N” value in series [3] turned out to be 2.

B2: AJM25 71mer ssDNA (ssDNA)
DNA: CAGAAGTAAGTTGGCCGCAGTGTTATCACTCATGGTTATGGCAGCACTGCATAATTCTCTTACTGTCATGC
Consider B2, for which the binding result in series [4] (label: 5' 6-FAM, single strand) is given as “no binding”; in series [5] (label: 5' 6-FAM, single strand) it was “no binding”. Moreover, the binding signal in series [6] was ~40 fold reduction in affinity. Also, in series [7] (label: 5' 6-FAM, single strand), the Kd stood at 28 ± 2 nM.

B3: AJM25/AJG52 71 bp dsDNA (dsDNA)
DNA 1: B2 DNA
DNA 2: GCATGACAGTAAGAGAATTATGCAGTGCTGCCATAACCATGAGTGATAACACTGCGGCCAACTTACTTCTG
Consider B3, for which the binding result in series [4] (setting [8]) and in series [5] (setting [8]) was “no binding” in each case. The Kd in series [7] (setting [8]) turned out to be 24 ± 1 nM.

These data come from article PMC4330346, “Function of the N-terminal segment of the RecA-dependent nuclease Ref” (Nucleic Acids Research, 2015).
